Test: label from the status in PepcDB records
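Further: failed if final PepcDB status was selected cloned or expressed and not failed if soluble or beyond.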

Sequence	protein production
MSTSDPSAERPRDNFIYDIIDEDLEHGTYDGRVVTRFPPEPNGYLHIGHAKSIVLNFGIKHDYADRADTRCHLRFDDTNPDTESTEYVESIKEAVQWLGYDWEEHEYHASDYFEQFYQYAVTLIEQGDAYVDSLSEEEIREYRGTVDEPGTPSPYRDRSVEENLELFRKMRDGEFDDGEHVLRAKIDMSSPHMIMRDPLLFRIKHAHHYRRGDEWCIYPMYDYAHPLEDAIENITHSLCTLEFDNNRRVYDWVMEHCLDENELPSRPRQYEFNRLNLGYTVMSKTKLRHLIEEDLVGGWDDPRLPTISGLRRRGVPPSAIRSFCRTVGVTRSQSRVQIGHFEHALRDDLNAKAPRVMAVLDPLKVVATNVDADAVDWIDANHWPRDIDKDETRPVPFTREFYIERDDFREDPPEDFIRLAPGREVRLRHAYFFTCEEVVRDEDGVVTELRGTIDPETRDSTAPDGRSPEGTLHWVSAAHGLPFEARLYDRLFEVPDPDARDEHFTEFLNPDSLNVRQGVLEPAVRDLEADQRVQFERQGYFWPDPEASRPDALVYNQIVPLRDTWGEDEDGLTQEELARRRRAKEQRKQEQRRRSLDGKTDPAEHLDDAQRDRFDRFHDELGIDREDAATIAGNGALAGFFEQALAHYDAPVPVANWTVNELLGRLQDQTVADLPFGPDAFAELVRLVDTEFISTRGGDAVLDALLEDGGSPERIVDDRGLRQVDDTEALRPTVQSVLDDHPDEVSRYRDGKKGLIGFFMGQVMDATDGAASPELARELLQQELDPSA	failed
MSTSHPISKIYFSDKKSLQKVDILLEQEGIRRDTNLDYICAMFDDDLNIIATGSCFGNTLRCLSVDHHYQGDGLLNEIVTHLINIQFERGNTHLFLYTKPDTAKFFKDLGFYEIARADKQIVFMENKKDGFSNYLKNLEKPDSECQTTAALVINANPFTLGHQYLVEKAAAENELLHLFMVSDDSSLIPFSVRKQLILAGTEHLSNICYHETGPYIISKSIFPSYFQKDQASVIESQARIDLAIFIQIAKYLGIKGRYVGEEPTSLVTGIYNQIMLQELPKQAIDCIVVPRKTYKDGPISASTVRKALKEGNEQILRELLPSTSLNYFLSPEAQPLIKKIQKADNVIHY	failed
MSTSPYEKLSEQEKKQMIKEIQEQAYEALLYAFGVEKKMISDDVKNLLNIEQESAEEKRKMAYEATLLAATFSHSLAKDRDGVLATLKNQLHITDDFHRECQNRVRNNILVVQLTGEASGSNYVGETGWTTLRRISNTIFRF	failed
MSTSQTKNVSIDTIKEFMYQVLLKVGSDEENARMVRDTLIAADLRGMDTHGIQRFKTVYIDRIKKGMINPTAKPSIIRETSTTCVLDGNNGFGHVNGTIGMKMAIEKAKKYGMGMVVVRNSTHFGIAGYYSLLAAQEGCIGICGTNARSSVAATFGDEPILGTNPLAIGIPSDEAFPYCFDGATSISPTGRFEKYVRMGKTVDKSWASMKGGKPIEDPKELLENYPKGKAYLHPLGGSDEVSGSHKGYCLSEFVEIMSSCLSIANFLNHIEEEKEKSGKFSLGHFFIAINVECFRDLNEFKKNVGDINRTLRNTDKLPGHDRIYTAGEKEYETEQKRRKFGDDLPLVTINEMKELSSFYNVPLPF	not failed
MSTTMKRQGCSSDSGDLRRQPSRLLKRPPALKIVPATPAANNWNTAIPLLSPLALSPESSPVDQPPVEKNQSTAVAVEKTPVFKKWQHPAAPFYYESSTFVPPFVPV	failed
MSTTTATLRDAIPDTRSLVTWAAVLNAEFILILGYVVNTAQPATDPFLLVFPFIWLNIAGLVALRVRPELPSRRRTIGSVVIALGYLLVLGYVGGVYGTGGQGTGLRLVTQAPPGFSPTVVFSGATLSVVLIPWKVAGYLALSYLVFVTAVDASGGAVGGIVGLFSCVSCVLPILASILGGFVGVGATLSQAALSQSYGLSTVVFVTSVGLLYGVHRFDVTLVGRLQALVDRP	failed
MSTYDTAVLDDTLVSCLSQLIGAEHIDTLTLEGRFEITRIAAALSGRPGPAPRAILMSGLQGSGKTTLARALEAAGFRRLCPDEEMFRRYGHYGRDFPRGEFRVREAPVLKDIALELQELLTAGHEVVVDHGFWTREERAQWAMTVMEAGGKPVLIYLPVPHEVRWDRIRKRNEQSLVDANSIEFSEEDLLRHAGRFSPPTDDEPHIVYDGQPDSVLADIQLSRHFDALEHHHHHH	failed
MSVAAEVAQVAQSAIDDFNAAYGLCLDDDRLEQWPTLFVDDCLYQVIARENVDNGLPAAVMYCDSKGMLADRVVALRKANVFPEHFNRHLIGRAVITGVEGDQVSAEASYVVFQTRNDGETRIYNAGKYVDRFDLSGGTVRLKSRTCIYDTLRIATLLATPI	not failed
MSVAAGGPAGAAIPESRLMALGIIGGLGGIYASTVNPVIGPVFASLGAVCAIIWGADAIRRVASYGLGTGVPSIGYMSVSIGIVGVVAGLASVFTLPALAAPVVGLILAMILGVVVAVLGKKIVKMKIPILEKCTAEISGAAALSVLGFSAAIAGSYTMQAVLTSVIATGFIGLLFILNTMAIQHPFNACLGPNENQTRTLKLAASTGFISMAIAGLLGIGLNPGWWLVSLVGALCWVVAFKSFVSASFEEAASVKWSGLWPKEEEQ	failed
MSVADSYFDELFRNNDDPWAFKQRWYERRKRALTLAALPRERYRAIFEPGCANGELSADLAERCDMLVCCDTSTQAVELARQRLADVPHARVVQARLPHQWPAGQFDLIVFSELGYYLDAADLHRLIDCALAALSPDGQLLACHWRPDIEGCPLNAQAVHAILAERLSMHRLFSHHEQDFLLDLWSRDGLEHHHHHH	failed
MSVAHENARRIISDILGKQNIERVWFVGCGGSLTGFWPGKYFLDCEASKLAVGYITSNEFVHATPKALGKNSVVILASQQGNTAETVAAARVAREKGAATIGLVYQPDTPLCEYSDYIIEYQWARYPETVDPAQQKAAYSLWLALEILAQTEGYAQYDELVSAFGRFSDVVHGAQRQVQEDAQRFAAEWKDEKVVYMMGSGPSFGAAHQESICILLEMQWINSASIHSGEYFHGPFEITEPGTPFILLQSSGRTRPLDDRAIRFIERYQGKLQLIDADKLGIQDLSTDVGEYFCGLLHNCVLDVYNLALATARNHPLTTRRYMWKVEY	not failed
MSVASLPSFLCLSQESSRRASARRESPSSPRTWAGWIPVTGTGMRECVVALCLLLTLIFAAASPALAFNPDEVLKDPVLEQRARNLTSQLRCMVCQNQSIDDSNAELARDLRVLVRERLVQGDSDKAVIDYVVSRYGEFVLLKPRLSLRTLLLWGAPIGLTLAGIFAVFVFSRRRATQERPQKLSADEEERIRNLIEK	failed
MSVDDSADVVVVGAGPAGSAAAAWAARAGRDVLVIDTATFPRDKPCGDGLTPRAVAELHQLGLGKWLADHIRHRGLRMSGFGGEVEVDWPGPSFPSYGSAVARLELDDRIRKVAEDTGARMLLGAKAVAVHHDSSRRVVSLTLADGTEVGCRQLIVADGARSPLGRKLGRRWHRETVYGVAVRGYLSTAYSDDPWLTSHLELRSPDGAVLPGYGWIFPLGNGEVNIGVGALSTSRRPADLALRPLISYYTDLRRDEWGFTGQPRAVSSALLPMGGAVSGVAGSNWMLIGDAAACVNPLNGEGIDYGLETGRLAAELLDSRDLARLWPSLLADRYGRGFSVARRLALLLTFPRFLPTTGPITMRSTALMNIAVRVMSNLVTDDDRDWVARVWRGGGQLSRLVDRRPPFS	failed
MSVDPKLIRQKIQRLDAGARPRVLDLFSGCGGISLGFQSAGFEIVAAVENDPDAARSHGLNFHHGEDRHSIPRNITVTSPAALATALGLGAAASAFDVIVGGPPCQAFARVGRSKLREIAEHPEAFRHDSRARLYIEYLAYVEACAPLAVVIENVPDMLNHGGHNLAAEIGEILASKDYVVRYTLLNAAFYGVPQMRERMILIAIRKELADDVEFPAPTHWIDLPSGYQGSRAVALKLATGRDLLTEATGGSAYKAAPEAVETLAPAVSTQQAIGDLPEIMARELLAEGALRRGTRRLDAMLPYGGHNQQNDYVKEMRTWPGFEGSSHVRDHVIRYLPRDYRIFAGLKPGDQYPEAHRYALSLFEAELERLHAQGKRPEDGSSEWDALKAAFVPPYDAGKFPNKWRKMEATTPARTLLAHLGKDGYSHIHYDSRQARPISVREAARLQSFPDGFRFAGTMNPAFRQIGNAVPPLLARAIAQTLRSQLVRGVATEDLPRVAGAGR	failed
MSVEIKRVDKHHCLDLVEIFIELEQYYFGDKAASEQDLANYLSHQVFSEHSGVKVIAAVEHDKVLGFATYTIMFPAPKLSGQMYMKDLFVSSSAPGKGIGLQLMKHLATIAITYNCQRLDWTAESTNPTARKFYKSIGASLIREKEYYRFEGNGLNKLAKSL	not failed
MSVFTKTSVASAATTCLFVLLWSSGAIVSKLGLAHASPFAFLLLRSALALAGLLLIGPLLGLRWPRTRGSILRALGTGCVLLGAYQIFYLLALDTHVTPGVMATVMGVQPILTVVLMERQRSWSRLFGLGLGLGGLIMVVYQGINLGGVSLAGMLFALLALVSMTFGSILQKRITDNPMGTLPLQYLAGFAMCALFAPLQPLHVEWTGSFVGALLWMGLVVSLLATLLLYRLIAKGNLVNVTSLFYLVPAVTAVMDLLIFGNRLAPLSLLGMGLIVVGLLFVFRKPAARLAEA	failed
MSVGCARIRRALRHGTSPARQHDAAAASHRRAPVVRIRMDIDAALGEQYVDYRCSRCGMVAQAAVAGYGTGLVVNGVSLSNAQLEAEVGAARAARLAPCPRCGHRGRPALLGVLLVGATVGVVAAMAIGFTVAELFHRSDPEGRLAPVVGTATFVAVVATMTALKLRSVRRRVRFHRVML	failed
MSVIHPLQNLLTSRDGSLVFAIIKNCILSFKYQSPNHWEFAGKWSDDFDKIQESRNTTAKEQQGQSSENENENKKLKSNKGDSIKRTAAKVPSPGLGAPPIYSYIRNLRLTSDESRLIACADSDKSLLVFDVDKTSKNVLKLRKRFCFSKRPNAISIAEDDTTVIIADKFGDVYSIDINSIPEEKFTQEPILGHVSMLTDVHLIKDSDGHQFIITSDRDEHIKISHYPQCFIVDKWLFGHKHFVSSICCGKDYLLLSAGGDDKIFAWDWKTGKNLSTFDYNSLIKPYLNDQHLAPPRFQNENNDIIEFAVSKIIKSKNLPFVAFFVEATKCIIILEMSEKQKGDLALKQIITFPYNVISLSAHNDEFQVTLDNKESSGVQKNFAKFIEYNLNENSFVVNNEKSNEFDSAIIQSVQGDSNLVTKKEEIYPLYNVSSLRKHGEHYS	failed
MSVIIAANNLCLQYQQNEPVIKHANLRIKRKDFVFISGPSGSGKSTLLRSFYGDLKLFSGKLEVCNINMNNASKATILDLRKNIGVVFQDYKLIQDYTIEQNIKLPMVICGIKKEECHLQLEKLLGHIDLRHKANRYPKELSGGEQQRVAMARAMANCPELILADEPTGNLDDYSSDKIWSLLRGMNTQLNATIVVVTHKFPKNFSAYHRKFYIEDGEVYEYS	failed
MSVKRVLRNTIRKEKEENRVTEPLTETPELSAKYAWFFDLDGTLAEIKPHPDQVVVPDTILQGLQLLATASDGALALISGRSMVELDALAKPYRFPLAGVHGAERRDINGKTHIVHLPDAIARDISVQLHTVIAQYPGAELEAKGMAFALHYRQAPQHEDALMTLAQRITQIWPQMALQQGKCVVEIKPKGTSKGEAIAAFMQEAPFIGRTPVFLGDDLTDESGFAVVNRLGGMSVKIGTGATQASWRLAGVPDVWSWLEMITTALQQKRENNRSDDYESFSRSI	failed
MSVKVSEYMTKKVVTVSKDNTVKDVIKLLKETGHNSFPVVENGKLIGIVSVHDIVGKDDNEKVENVMTKRKDMVVTTPDANIMDVGRIMFRTGFSKLPVVDEENNLVGIISNMDVIRSQIEKTTPKKLENIIKTYKSLGYNLRVEKEEVDVNKLRPTQNKIHADELVGRMYELKKGLAEPIIAIKTKRGDYYILVDGHHRAVAAYKMGVPKLDAYVIYLDTDKKLGIEKTAEIMNLKSLEDVKIVDSDDENSVKVIKYNKNGVLG	failed
MSVLDLPELALDCILDLLPPSGLCSMARVCSSLRERCVSDHLWEKHLKTKWGKILGPAAHREWQCYISSSTYHLDSPHHQTGNLGFAKIISLIRSLSSVFREDKQRRGYASSLPLDSSMSCYLSLETGRFWFPAQVYNRENGHVGFMLSCYDAELSYDTHTDTFQARYPPHGRRASAIEKGVTWDRIRAAPIDASPHLLHVSDSLKELKPGDHIEIQWRRNKEFPYGK	failed

Reference: a protein production outcome set (Wang et al. 2014)
